Measurements from patent US20020051988A1 (TRUSTEES OF BOSTON UNIVERSITY, published 2002).
Each block holds one molecule with its values, some of them ahead of it. Where no end group is shown, it is not given here.

Columns and labels:
[1] = biological target: p75 nerve growth factor receptor (p75^NTR) overexpressed on permanently transfected NIH 3T3 fibroblasts (Homo sapiens (Human)) (UniProt P08138); assay: competition with ^125I β-amyloid 1-40 on p75^NTR-NIH 3T3 cells, 2 h at 4 C, NGF 0-100 ng/ml; value at 100 ng/ml NGF
[2] = biological target: p75 nerve growth factor receptor (p75^NTR) on cultured normal human melanocytes (human) (UniProt P08138); assay: cell-based or functional assay
[3] = biological target: p75 nerve growth factor receptor (p75^NTR) overexpressed on permanently transfected NIH 3T3 fibroblasts (Homo sapiens (Human)) (UniProt P08138); assay: cell-based or functional assay
[4] = biological target: T1, p75 nerve growth factor receptor (p75^NTR) overexpressed on permanently transfected NIH 3T3 fibroblasts (Homo sapiens (Human), UniProt P08138 29-427); assay: displacement of ^125I β-amyloid 1-40 from p75^NTR 3T3 cells, 4 h at 4 C, peptide 0-400 nM
T1 construct: also called 75 kD neurotrophin receptor
T1 sequence: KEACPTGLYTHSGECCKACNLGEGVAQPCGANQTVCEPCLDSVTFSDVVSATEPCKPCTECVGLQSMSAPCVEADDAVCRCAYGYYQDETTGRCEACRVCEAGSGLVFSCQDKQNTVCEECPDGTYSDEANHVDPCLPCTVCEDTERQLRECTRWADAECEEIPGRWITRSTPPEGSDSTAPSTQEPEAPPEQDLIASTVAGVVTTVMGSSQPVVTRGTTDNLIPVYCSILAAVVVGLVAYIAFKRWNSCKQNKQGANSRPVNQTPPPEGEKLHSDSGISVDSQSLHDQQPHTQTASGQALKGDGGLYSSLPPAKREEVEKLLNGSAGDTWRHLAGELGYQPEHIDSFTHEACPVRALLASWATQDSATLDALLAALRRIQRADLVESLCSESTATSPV

Molecule: Nerve growth factor (NGF) (ligand)
maximum % inhibition of ^125I labeled β-amyloid binding [1]: 38%

Molecule: β-amyloid 1-40 peptide (from UniProt P05067 1-40)
Bax induction [2]: 3 fold | Bax level as compared to the 40-1 peptide [2]: 270% | decrease in cell yield [2]: 59% | decrease in melanocyte yield [2]: > 50% | decrease in cell yield [3]: 60%

The remaining lines, values ahead:

Bax induction [2]: 3 fold | Bax level as compared to the 40-1 peptide [2]: 160%
Molecule: β-amyloid 25-35 peptide (from UniProt P05067 696-706)

IC50 [4]: 25 nM
B1: cyclic peptide CVGSNKGAIC (SEQ ID NO: 4) (peptide)
peptide: CVGSNKGAIC
modifications: also: cyclic peptide, ring closure not given here
notes: also called cyclic decapeptide; cold peptide
